Fold lower affinity than WT data for one substance are collected here from publication PMC11319201.

The experiment concerns the target STAG2^R370Q–RAD21 complex (UniProt Q8N3U4). The experiment in a line: ITC; MicroCal iTC 200, 25 °C; 20 mM Tris pH 7.7, 150 mM NaCl, 0.5 mM TCEP; 300 μl of 50 μM STAG2–RAD21 in the cell, 500 μM CTCF peptide injected as 16 x 2.5 μl; one-site binding model.

Sequence of STAG2^R370Q–RAD21 complex (Q8N3U4 whole entry R370Q, chain 1 of 2): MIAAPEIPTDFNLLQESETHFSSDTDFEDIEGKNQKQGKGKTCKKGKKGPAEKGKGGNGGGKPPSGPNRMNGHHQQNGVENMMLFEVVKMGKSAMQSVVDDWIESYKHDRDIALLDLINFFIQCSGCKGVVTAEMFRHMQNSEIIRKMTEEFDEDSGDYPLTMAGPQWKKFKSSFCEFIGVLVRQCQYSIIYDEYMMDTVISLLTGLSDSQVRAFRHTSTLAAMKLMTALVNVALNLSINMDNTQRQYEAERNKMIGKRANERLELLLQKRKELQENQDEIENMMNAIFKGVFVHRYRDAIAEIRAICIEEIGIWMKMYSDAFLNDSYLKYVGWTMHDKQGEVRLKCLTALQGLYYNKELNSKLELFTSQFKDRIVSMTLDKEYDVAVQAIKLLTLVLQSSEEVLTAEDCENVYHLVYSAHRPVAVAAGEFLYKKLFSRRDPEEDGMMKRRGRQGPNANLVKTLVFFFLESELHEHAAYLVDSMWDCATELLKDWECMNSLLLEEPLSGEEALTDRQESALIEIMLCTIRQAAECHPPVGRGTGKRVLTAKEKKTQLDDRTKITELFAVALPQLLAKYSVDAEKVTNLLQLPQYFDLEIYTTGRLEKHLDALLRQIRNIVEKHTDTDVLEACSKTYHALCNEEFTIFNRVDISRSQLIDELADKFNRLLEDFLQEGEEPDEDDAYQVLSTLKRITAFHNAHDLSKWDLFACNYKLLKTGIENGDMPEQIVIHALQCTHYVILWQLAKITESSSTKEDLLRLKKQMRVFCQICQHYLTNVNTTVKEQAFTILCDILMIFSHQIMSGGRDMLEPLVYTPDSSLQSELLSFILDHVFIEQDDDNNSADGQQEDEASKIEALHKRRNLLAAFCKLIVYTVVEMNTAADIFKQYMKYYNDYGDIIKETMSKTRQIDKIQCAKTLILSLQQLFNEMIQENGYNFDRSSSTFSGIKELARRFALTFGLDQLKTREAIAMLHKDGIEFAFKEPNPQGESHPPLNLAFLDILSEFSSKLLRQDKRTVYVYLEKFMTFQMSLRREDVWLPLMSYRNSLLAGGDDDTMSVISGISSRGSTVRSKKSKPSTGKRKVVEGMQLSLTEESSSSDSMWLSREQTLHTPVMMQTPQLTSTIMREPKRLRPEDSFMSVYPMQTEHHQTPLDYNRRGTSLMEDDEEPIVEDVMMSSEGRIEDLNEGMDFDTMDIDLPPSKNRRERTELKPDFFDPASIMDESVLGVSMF
Sequence of STAG2^R370Q–RAD21 complex (O60216 whole entry, chain 2 of 2, further chain): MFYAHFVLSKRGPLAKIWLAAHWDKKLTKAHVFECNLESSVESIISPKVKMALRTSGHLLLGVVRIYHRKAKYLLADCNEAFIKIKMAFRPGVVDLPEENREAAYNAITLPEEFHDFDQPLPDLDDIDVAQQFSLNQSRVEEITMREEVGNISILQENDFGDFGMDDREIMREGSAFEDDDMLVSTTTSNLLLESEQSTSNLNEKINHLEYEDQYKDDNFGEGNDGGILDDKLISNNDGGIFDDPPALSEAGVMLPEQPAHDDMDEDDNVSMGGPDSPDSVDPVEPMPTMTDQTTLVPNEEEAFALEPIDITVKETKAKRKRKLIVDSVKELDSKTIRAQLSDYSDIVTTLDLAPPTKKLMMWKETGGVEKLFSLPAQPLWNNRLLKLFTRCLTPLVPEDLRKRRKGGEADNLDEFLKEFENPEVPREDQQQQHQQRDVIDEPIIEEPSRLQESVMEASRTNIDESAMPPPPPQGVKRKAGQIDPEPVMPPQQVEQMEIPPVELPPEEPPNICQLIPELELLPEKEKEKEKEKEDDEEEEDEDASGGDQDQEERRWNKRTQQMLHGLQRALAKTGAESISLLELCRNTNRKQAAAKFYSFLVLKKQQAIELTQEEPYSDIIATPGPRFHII

CTCF peptide showed a fold lower affinity than WT of 10 fold.
